The values that follow come from patent US20160324962A1 (AstraZeneca / MedImmune, published 2016).

Experiment [1] deals with T1, human insulin-like growth factor 2 (IGF-2) (human, UniProt P01344 25-91).
T1 construct: also called hIGF-2
Briefly: method not stated; affinity quoted in Example 3.

Experiment [2] addresses T2, human insulin-like growth factor 1 (IGF-1) (human, UniProt P05019 49-118).
T2 construct: also called hIGF-1
Briefly: method not stated; affinity quoted in Example 3.

In experiment [3] the target is T1, human insulin-like growth factor 2 …. The experiment can be described thus: cell-based or functional assay.
Experiment [4] has as its target T2, human insulin-like growth factor 1 …. The experiment can be described thus: cell-based or functional assay.

T1 sequence (P01344 25-91 limits assumed): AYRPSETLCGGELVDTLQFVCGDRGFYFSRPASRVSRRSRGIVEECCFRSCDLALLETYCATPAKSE
T2 sequence (P05019 49-118 limits assumed): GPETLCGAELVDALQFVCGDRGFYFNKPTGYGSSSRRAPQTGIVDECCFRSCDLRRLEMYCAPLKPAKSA

B1: MEDI-573 (antibody, human IgG2, lambda, V domains shown)
VH: QVQLVQSGAEVKKPGASVKVSCKASGYTFTSYDINWVRQATGQGLEWMGWMNPNSGNTGYAQKFQGRVTMTRNTSISTAYMELSSLRSEDTAVYYCARDPYYYYYGMDVWGQGTTVTVSS
VL: QSVLTQPPSVSAAPGQKVTISCSGSSSNIENNHVSWYQQLPGTAPKLLIYDNNKRPSGIPDRFSGSKSGTSATLGITGLQTGDEADYYCETWDTSLSAGRVFGGGTKLTVLG
notes: also called mAb 7.159.2; anti-IGF antibody
As to B1, in experiment [1], the Kd was 2 pM. Further, in experiment [2], the Kd was determined as 0.294 nM. Further, in experiment [3], the “IC50 (µM), inhibition of IGF-2-stimulated proliferation of MG-63 cells (CellTiter-Glo)” value is 5.8 µM; the “IC50 (µM), inhibition of IGF-2-stimulated proliferation of RD-ES cells (CellTiter-Glo)” value was determined as 2 µM; the “IC50 (µM), inhibition of IGF-2-stimulated proliferation of SAOS2 cells (CellTiter-Glo)” value is 5.3 µM; the “IC50 (µM), inhibition of IGF-2-stimulated proliferation of SK-ES-1 cells (CellTiter-Glo)” value was found to be 20 µM. In addition, in experiment [4], the “IC50 (µM), inhibition of IGF-1-stimulated proliferation of MG-63 cells (CellTiter-Glo)” value came out at 223 µM; the “IC50 (µM), inhibition of IGF-1-stimulated proliferation of RD-ES cells (CellTiter-Glo)” value turned out to be 40 µM; the “IC50 (µM), inhibition of IGF-1-stimulated proliferation of SAOS2 cells (CellTiter-Glo)” value was determined as 177 µM; the “IC50 (µM), inhibition of IGF-1-stimulated proliferation of SK-ES-1 cells (CellTiter-Glo)” value is 20 µM.
